The values below come from paper PMC3527935.

Assay [1] concerns the target soluble LDL receptor ectodomain (UniProt P01130). Nature of the assay: ELISA. On the technique in general: An ELISA detects its analyte on a solid surface through an enzyme-linked reagent.
Assay [2] has the same target. Briefly: BLI. For orientation: Biolayer interferometry detects binding as a change in optical thickness at a sensor tip.

soluble LDL receptor ectodomain, sequence (P01130 22-788): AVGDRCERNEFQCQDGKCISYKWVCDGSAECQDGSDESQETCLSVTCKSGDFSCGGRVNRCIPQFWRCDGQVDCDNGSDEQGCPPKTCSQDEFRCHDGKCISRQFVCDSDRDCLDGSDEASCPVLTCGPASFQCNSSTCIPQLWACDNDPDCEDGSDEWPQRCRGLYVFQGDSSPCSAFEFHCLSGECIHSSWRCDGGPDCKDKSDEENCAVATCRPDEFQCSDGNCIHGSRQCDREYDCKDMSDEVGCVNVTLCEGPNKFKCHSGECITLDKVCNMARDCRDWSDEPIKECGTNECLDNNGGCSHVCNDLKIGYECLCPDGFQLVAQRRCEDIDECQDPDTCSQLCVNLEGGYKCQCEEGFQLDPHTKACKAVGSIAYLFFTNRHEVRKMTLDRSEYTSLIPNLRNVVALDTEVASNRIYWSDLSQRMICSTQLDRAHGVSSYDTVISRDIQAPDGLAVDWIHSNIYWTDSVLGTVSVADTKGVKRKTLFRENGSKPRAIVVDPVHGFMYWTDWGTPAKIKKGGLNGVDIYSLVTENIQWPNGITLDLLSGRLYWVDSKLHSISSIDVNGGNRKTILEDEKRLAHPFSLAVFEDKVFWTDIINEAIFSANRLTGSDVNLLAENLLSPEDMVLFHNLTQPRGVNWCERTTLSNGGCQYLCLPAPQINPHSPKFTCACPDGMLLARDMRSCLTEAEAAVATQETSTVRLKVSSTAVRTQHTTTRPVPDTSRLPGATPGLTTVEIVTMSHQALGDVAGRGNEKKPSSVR

For orientation: Kd means the equilibrium constant for the complex coming apart. Low values mean a tighter complex, high ones a looser complex. Usually koff stands for the rate constant with which the complex falls apart. By kon is commonly meant the second-order rate constant of association. “purified hepsin-cleaved PCSK9 (from UniProt Q8NBP7) (natural protein)” returned an affinity loss against intact PCSK9 (IC50 intact/IC50 cleaved), fold in assay [1] of 1.4 fold. In assay [2], the Kd turned out to be 268 nM, the koff stood at 0.00858 s⁻¹ and the kon was found to be 32000 M⁻¹ s⁻¹.

In turn, “purified furin-cleaved PCSK9 (from UniProt Q8NBP7) (natural protein)” yielded an affinity loss against intact PCSK9 (IC50 intact/IC50 cleaved), fold in assay [1] of 1.1 fold. In assay [2], the Kd came out at 356 nM, the off-rate (koff) worked out at 0.0138 s⁻¹ and the kon stood at 39000 M⁻¹ s⁻¹.
